Measurements published in a protein production outcome set (Wang et al. 2014).

Experiment: label from the status in PepcDB records

| Sequence | protein production |
| --- | --- |
| MSSSLLSVLKEKSRSLKIRNKPVKMTSQERMIVHRCRFVDFTPATITSLAFSHKSNINKLTPSDLRLAIGRSNGNIEIWNPRNNWFQEMVIEGGKDRSIEGLCWSNVNGESLRLFSIGGSTVVTEWDLATGLPLRNYDCNSGVIWSISINDSQDKLSVGCDNGTVVLIDISGGPGVLEHDTILMRQEARVLTLAWKKDDFVIGGCSDGRIRIWSAQKNDENMGRLLHTMKVDKAKKESTLVWSVIYLPRTDQIASGDSTGSIKFWDFQFATLNQSFKAHDADVLCLTTDTDNNYVFSAGVDRKIFQFSQNTNKSQKNNRWVNSSNRLLHGNDIRAICAYQSKGADFLVSGGVEKTLVINSLTSFSNGNYRKMPTVEPYSKNVLVNKEQRLVVSWSESTVKIWTMGTDSSTEQNYKLVCKLTLKDDQNISTCSLSPDGQVLVVGRPSTTKVFHLQPVGNKLKVTKLDNDLLLRTSTKLVKFIDNSKIVICSCEDDVFIVDLESEEDEKPQEVELLEVTSTKSSIKVPYINRINHLEVDQNIAVISRGCGVVDILDLKARISKPLARLNNFITAVHINTSRKSVVVITADNKIYEFNMNLNSEAENEDSESVLTQWSKNNTDNLPKEWKTLKENCVGIFSDIENSSRLWFWGATWISRIDFDVDFPINKRRKQKKRTHEGLTITDESNFMNDEEDDEDDDIDMEISENLNVLLNQGNKIKSTDVQRNEESSGHFFFTDKYKPLLFVDLISSNELAIIERNPLTFHSKQKAFIQPKLVF | failed |
| KDNTKVIAHRGYWKTEGSAQNSIRSLERASEIGAYGSEFDVHLTADNVLVVYHDNDIQGKHIQSCTYDELKDLQLSNGEKLPTLEQYLKRAKKLKNIRLIFELKSHDTPERNRDAARLSVQMVKRMKLAKRTDYISFNMDACKEFIRLCPKSEVSYLNGELSPMELKELGFTGLDYHYKVLQSHPDWVKDCKVLGMTSNVWTVDDPKLMEEMIDMGVDFITTDLPEETQKILHSRAQ | not failed |
| MQAIRSILVVIEPDQLEGLALKRAQLIAGVTQSHLHLLVCEKRRDHSAALNDLAQELREEGYSVSTNQAWKDSLHQTIIAEQQAEGCGLIIKQHFPDNPLKKAILTPDDWKLLRFAPCPVLMTKTARPWTGGKILAAVDVGNNDGEHRSLHAGIISHAYDIAGLAKATLHVISAHPSPMLSSADPTFQLSETIEARYREACRTFQAEYGFSDEQLHIEEGPADVLIPRTAQKLDAVVTVIGTVARTGLSGALIGNTAEVVLDTLESDVLVLKPDDIIAHLEELASKE | not failed |
| MSNSTEPALAIITVTYSPGKHLGAFLSSVKEATAQPTYVVLADNGSVDGVPEAAAQADPSVEFFPTGGNIGYGSAINAAVRKLAPLRESGKINAEFFVLSNPDVVFEPGSIDAMVQCASRHPQAADIGPYIRQSDGSAYPSARQVPTIKNGVGHALFSSVWPSNPWSRAYRDNRDMTTERTAGWLSGSCLLVRWDAFEQIGGFDERYFMYMEDVDLGDRFGRAGFDNVFCPDAVITHAVGHAAGKHPEKMLPAHHDSAYRFQADRHPGLRYLPLRVLLRVGLKLRAVVAVAAAKFKLEHHHHHH | not failed |
| MSVKKERVDVLLVERGLIETREKAKRAIMAGLVYANEMRLDKPGEKISQDTEITVKGQVMPYVSRGGYKLEKALETFHLDLQDKVMIDIGSSTGGFTDCALQNGAKLSYALDVGYNQLAWKLRQDERVVVMERTNFRYVTPADLERGLPQFASIDVSFISLKLILPVLKTMLMPNGDVAALIKPQFEAGREQVGKKGIVRDRKVHEAVVEMIVEFALKEGYDVEGLTFSPITGGDGNIEFLIHLKWHGERENGENHSPISIEQVVTEAHEVLKQKGKGE | failed |
| MKKGFVSIIIPSYNEASNIKLIYESLRNEFQSIDYDYEIYYINDGSTDRTLEEIKKLAEKSEHVKYISFSRNFGKEAAILAGFQHARGDAVVVMDADLQHPTYLLHDFIKGYEEGYDQVVAQRNRKGDNPVRSYLSSLYYRFINNAVEVDLRDGVGDFRLLSRKAVNAMLKLSEGNRFSKGLFCWIGFDQKIVYYENVERKNGKSKWSFRHLLNYGIDGIVSFNNRPLRMCFYAGIFILFLSLIYIAATFIRILKYGVIVPGYFTIISAVLFLGGVQLLSLGIIGEYIGRIYYETKKRPHYLIQEANIAHGETHENRES | failed |
| MHNDFNLLILSGPSGAGKSTLTKYLQEKIPKTHFSLSTTTRKPREGEVDGLHYNFVSEEEFKQGIEKGQFLEWAIVHNHYYGTSKIPVEKALKEGKIVIFDIDVQGHEILKKHYPNACSVFISTKNQEILKERLLLRGTDSKETIEKRLINAYKEMQCLESFDYLIINEDLEKSKEIILSIAKTLVHRLKAFNFEKICKAWKNETL | failed |
| TLEQLPSAQSTLVSLDANNGALRALVGGFSFTANKFNRATQARRQPGSSFKPFVYSAALEKGFNPASIVPDAPVIFRDRRGHTWSPQNDDGKFQGPMRIRDALVQSRNLVSVRLLDAIGIDFARNYITQFGFEENEIPPNLSMSLGTASLTPLSIARGYAVFANGGFRIDPWLIDEIHDREHKLIFKNNPKVACSSCTSANTNVTQSTSHLVDGFNFGAPTKTEPSKPVKNNNEPTQTIPSPDPNTPMAPRAIDERVVFQLVSMMRDVVLRGTATAARSLNRQDIAGKTGSTNEHRDAWFSGFGGPYVTTVWVGRDDFQSLGYREYGGKAALPIWIEYMRTALKDKPIARN | failed |
| IEDCWLAYATAGTLNEDKSNAILIPTWYSGTHQTWFQQYIGTDHALDPSKYFIISINQIGNGLSVSPANTADDSISMSKFPNVRIGDDVVAQDRLLRQEFGITELFAVVGGSMGAQQTYEWIVRFPDQVHRAAPIAGTAKNTPHDFIFTQTLNETVEADPGFNGGEYSSHEEVADGLRRQSHLWAAMGFSTEFWKQEAWRRLGLESKESVLADFLDPLFMSMDPNTLLNNAWKWQHGDVSRHTGGDLAAALGRVKAKTFVMPISEDMFFPVRDCAAEQALIPGSELRVIEDIAGHLGLFNVSENYIPQIDKNLKE | failed |
| MGSPNINGNTAKLVNAILDGAAEKRAEKVIYNLASLNIKGCDACFRCQKSGCCAIDDDMQELYHEIQAADTIVLGSPVYMWQMTAQTKLLIDRLTAFLKPDFSSRLDNKKLILVFSQGSPDRDAFKPYFEYTAGLLYYLGFDVLETVIAAGTDNLEVSFRPKLLENARELGRLVSTSPLTGPEFKKDEPSLTPLL | failed |
| MITKQDTIYEWIQNGQLEDALKALFQNIEEEPNTIENYINAGIVLADINEIEKAERFFQRAITIDDKNGAVYYNLANLYYDQGKYRDAIKLYQLASKYNMDKIDTNYMIGMSFNQLDAPTESLPYFMTAAELDKNQDAEVQFQYGLALCHLEMFNQAINQLKIVLDIDSKHVDALYNLGLATYMDTEDLDLAMSYFDKAISIDPNHLLSQHAKKTFEAIKNEEE | failed |
| MEESRESPAEHGYYMPAEWDSHAQTWIGWPERQDNWRHNALPAQRVFADVAKAISKFEPVTVCASPAQWENARKQLPEDIRVVEMSMNDSWFRDSGPTFIVRKRPVKLSSLNRNIAGIDWNFNAWGGANDGCYNDWSHDLLVSRKILALERIPRFQHSMILEGGSIHVDGEGTCLVTEECLLNKNRNPHMSKEQIEEELKKYLGVQSFIWLPRGLYGDEDTNGHIDNMCCFARPGVVLLSWTDDETDPQYERSVEALSVLSNSIDARGRKIQVIKLYIPEPLYMTEEESSGITQDGEAIPRLAGTRLAASYVNFYIANGGIIAPQFGDPIRDKEAIRVLSDTFPHHSVVGIENAREIVLAGGNIHCITQQQPAEPTSVAENGH | not failed |
| MNYKELLEFNDYAMDLTIRMAHHSTAIENNPLSLAETISILTTEYIPREMPQRAFFEVKNYQNMLFFLLENLNKGQSVDSFFIRELHGILMNFLLPNKGAFKTTDNTILGASFETTPIFKCLWL | failed |
| TPLLAILFIAQVSGSGRRVGVVGWPDLNYAGVLGYGGCYERIFAVPQQERTSLRVVTALAHGCDLVITRAGPTPRTYTPLQTQRFRNSLRSDAGCVIMMGDHVVSPAARLASAVVGYHGIGKGTGRIKAVEITVTGIAKGFYRTSRVIVGKHIAPAAEKTTMK | failed |
| MAVRFFHTSDWHLGQFFYNHSRHYEHEQFLAWLLKQIKAKQPHALLIAGDIFDVINPSSQAQKQLYQFLADAHALAPHMQTLMIAGNHDSGYRIEQVEPLLEKYNARTVGVIRWNEDKTLNLERLILPVYDENKNVVAWCIALPFLRSAEITGFNEHTNNSQSAIAYLHEQLISEAKRRKTDDQAIILMSHAHMQGGETSDSERPIIIGNEEALSTALFDDAIDYVALGHLHKPQKVQHPHIRYSGSPIPLSFSEINYKHQVVDVNIDPTQSTDKFQFEAIEIPRSIKLHKIRGELNEVIQQLKSLAQGEIESIDLREYIDIEYHTLTPPLPNLRQQFEDALPPKRYRLVRISRQYLSQDNNAAQASKINLEPPTPEKLFEQIWDKKGYHADDDVKKDFMSLVAQAQQQLEDQHKY | failed |
| AHTKISPLGIDTLCFKVSTNPGQPLQPIAKVASGGELSRISLAIQVITAQKVDTPSLIFDEVDVGISGPTAAVVGKMLRTLGESTQVLCVTHLPQVAGCGHNQLFVAKHTKSGKTETQMRALNLEERVEELARLLGGTQITAHTLANAKELLNAA | failed |
| MGNTDKLMNQIFDLKFTSKSLQRQSRKCEKEEKAEKLKVKKAIEKGNMDGARIYAENAIRKRSEQMNYLRLASRLDAVVARLDTQAKMTTITKSMTNIVKSLESSLATGNLQKMSETMDSFEKQFVNMEVQAEFMENAMAGSTSLSTPEGEVNSLMQQVADDYGLEVSVGLPQPAGHAIPTKTEEKVDEDDLSRRLAELKARG | failed |
| MAKKVKVITDPEVIKVMLEDTRRKILKLLRNKEMTISQLSEILGKTPQTIYHHIEKLKEAGLVEVKRTEMKGNLVEKYYGRTADVFYINLYLGDEELRYIARSRLKTKIDIFKRLGYQFEENELLNIMDRMSQKEFDATVRISKYIEEKEDALKDFSNEDIIHAIEWLSTAELARDEEYLELLKRLGSILKR | not failed |
| MKSSTMTSDYYKQTQIDQTLRLREVLKTLPPFAKDYFRAMEPKSSAKTRINYAYDIRVFFHFLLENNPIYKNYTMDQFRVQDLERIEPVDIEEYMEYLKVYKREDNEMITNGERGLKRKMSALRSFYSYYFKHQYIATNPTLLEHHHHHH | failed |
| MERVAVVGVPMDLGANRRGVDMGPSALRYARLLEQLEDLGYTVEDLGDVPVSLARASRRRGRGLAYLEEIRAAALVLKERLAALPEGVFPIVLGGDHSLSMGSVAGAARGRRVGVVWVDAHADFNTPETSPSGNVHGMPLAVLSGLGHPRLTEVFRAVDPKDVVLVGVRSLDPGEKRLLKEAGVRVYTMHEVDRLGVARIAEEVLKHLQGLPLHVSLDADVLDPTLAPGVGTPVPGGLTYREAHLLMEILAESGRVQSLDLVEVNPILDERNRTAEMLVGLALSLLGKRIF | not failed |
| MDGFVQWMEKHFMPKASVIAAQRHLVAIRDAFVVTMPLMILGALAVLINNIPIPGYEDFLNKIFPMMYNDAPIWKSFGGNIWNGTFAIFAVLVAFLVAHNLVKSYGKDGIAAGTVSVASFFAVGGLEGMGATGLFIALIIALISGELFQRLSGNPKLVIKMPDGVPPAVAKSFAALLPAMITISLFSLITSILFALGIDNIVISFYEAVQQPFMGLANSYPSALLLAFITPFLWFFGLHGANMVDPLMQTINVPAIDANIKALEAGKAIPYIVNKPFFDSFVNLGGTGATLGLLIAIFIVGRRNKPYKVITNLSLAPGLFNINEPVMFGLPIVLNPIMFIPFILVPMVLVTVAYVATATGLVPAATFMPPWVTPPIIGGFLATKSIAGGVLAAVNLLISILIYMPFVKVATDQYLKQEAAAEAAE | failed |
